The target in this assay is T1, XRCC4 (residues 1-336) (human, UniProt Q13426 1-336).
T1 construct: XRCC4, human, residues 1-336; The copies value of 2 rests on the introduction's words (one XRCC4 homodimer and one Lig4 monomer in the active complex), not on a measurement made here; also called X4
The assay can be described thus: differential scanning fluorimetry; Lig4 C-ter and XRCC4 equimolar at 5 uM in 20 mM HEPES pH 7.5, 100 mM KCl, 2 mM EDTA, 1 mM DTT, 66 mM NDSB-195, 10% glycerol, 10X SYPRO Orange; heated from 20 to 89 °C. Conditions: both partners purified. Background: In DSF a fluorescence change marks the thermal transition of the protein.

T1 sequence (Q13426 whole entry, the tested form may be a part): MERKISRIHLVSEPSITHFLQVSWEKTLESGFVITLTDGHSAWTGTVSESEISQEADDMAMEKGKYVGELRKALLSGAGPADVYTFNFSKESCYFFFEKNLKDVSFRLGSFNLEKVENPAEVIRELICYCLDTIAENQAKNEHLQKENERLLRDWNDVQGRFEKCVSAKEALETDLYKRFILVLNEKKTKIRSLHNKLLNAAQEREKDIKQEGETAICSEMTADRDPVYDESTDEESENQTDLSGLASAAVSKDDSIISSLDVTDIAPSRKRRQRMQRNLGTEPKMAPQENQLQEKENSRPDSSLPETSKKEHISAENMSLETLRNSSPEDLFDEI

B1: WT Lig4 C-ter domain (654-911) (domain or fragment, human, UniProt P49917 654-911, looked up)
chain: KISNIFEDVEFCVMSGTDSQPKPDLENRIAEFGGYIVQNPGPDTYCVIAGSENIRVKNIILSNKHDVVKPAWLLECFKTKSFVPWQPRFMIHMCPSTKEHFAREYDCYGDSYFIDTDLNQLKEVFSGIKNSNEQTPEEMASLIADLEYRYSWDCSPLSMFRRHTVYLDSYAVINDLSTKNEGTRLAIKALELRFHGAKVVSCLAEGVSHVIIGEDHSRVADFKAFRRTFKRKFKILKESWVTDSIDKCELQEENQYLI
notes: DNA ligase IV (Lig4), human, C-terminal fragment with the two BRCT domains and the clamp domain, residues 654-911; also called Lig4 C-ter fragment; C-ter Lig4 protein; source: Escherichia coli BL21 (DE3), purified (HisTrap HP, HiTrap Q HP)
On to B1, for which the binding result was “binds”.

The values are drawn from PMC4786802, “Structure-Based Virtual Ligand Screening on the XRCC4/DNA Ligase IV Interface” (Scientific Reports, 2016).
